Two molecules from patent US20230050615A1 (Ablynx, published 2023) can be followed below.

Assay [1] deals with T1, human serum albumin (Sigma-Aldrich A3782) (human, UniProt P02768 25-609).
T1 construct: Bought protein; also called HSA; human SA
Nature of the assay: competition ELISA on coated human serum albumin; tracer 1.5 nM [SEQ ID NO:1-cMycHis6] detected with anti-cMyc. In general terms: ELISA stands for enzyme-linked immunosorbent assay.

Assay [2] deals with T1, human serum albumin (Sigma-Aldrich …). Nature of the assay: SPR (ProteOn), HSA immobilised, 500 nM injected, dissociation at pH 6.0.
Assay [3] concerns the target T2, rat serum albumin (Sigma-Aldrich A4538) (rat, UniProt P02770 25-608).
T2 construct: Bought protein; also called rat SA
Nature of the assay: SPR (ProteOn XPR36), albumin immobilised, pH 7.4.

Assay [4] concerns the target T3, mouse serum albumin (Albumin Bioscience 2601) (mouse, UniProt P07724 25-608).
T3 construct: Bought protein; also called mouse SA
The experiment in a line: SPR (ProteOn XPR36), albumin immobilised, pH 7.4.

Assay [5] deals with T4, guinea pig serum albumin (Gentaur GPSA62) (guinea pig).
T4 construct: also called guinea pig SA
Nature of the assay: SPR (ProteOn XPR36), albumin immobilised, pH 7.4.

Assay [6] has as its target T1, human serum albumin (Sigma-Aldrich …). Nature of the assay: SPR (ProteOn XPR36), albumin immobilised, pH 7.4.
For assay [7], the target named is T5, cynomolgus monkey serum albumin (generated in-house) (cynomolgus monkey, UniProt A2V9Z4 25-608, limits assumed).
T5 construct: also called cyno SA
The experiment in a line: SPR (ProteOn XPR36), albumin immobilised, pH 7.4.

For assay [8], the target named is T1, human serum albumin (Sigma-Aldrich …). The experiment in a line: SPR (ProteOn), HSA immobilised, 500 nM injected, dissociation at pH 5.0.
For assay [9] the target is unchanged. The experiment in a line: SPR (ProteOn), HSA immobilised, 500 nM injected, dissociation at pH 7.4.

B1: [His6Flag3-SEQ ID NO:15] (VHH)
VHH: EVQLVESGGGLVQAGGSLRLSCAASGLTFSSYAMGWFRQAPGKERERVVSISRGGGYTYYADSVKGRFTISRDNAENTVYLQMNSLKPEDTAVYYCAAARYWATGSEYEFDYWGQGTLVTVSS
notes: not shown: N-terminal His6-Flag3 tag
Turning to B1, the “IC50 (read off the curve)” value in [1] is around 0.8 nM.

B2: serum albumin binder of SEQ ID NO:15 (T0235005D04, wild type) (VHH)
VHH: B1 VHH
notes: no tag is stated for these experiments
Consider B2, for which the koff is 6.9e-05 s⁻¹ in [2]; 0.022 s⁻¹ in [3]; 0.0024 s⁻¹ in [4]; 0.0021 s⁻¹ in assay [5]; 0.00015 s⁻¹ in assay [6]; 9.4e-05 s⁻¹ in assay [7]. Moreover, the koff is 5.8e-05 s⁻¹ in [8] and 0.00011 s⁻¹ in [9]. The Kd in assay [3] is 21 nM; in [4], 1.9 nM; in [5], 1.5 nM; in assay [6] it was 0.19 nM; in [7], 0.12 nM. Also, the kon in [3] is 1e+06 M⁻¹ s⁻¹; in [4], 1.2e+06 M⁻¹ s⁻¹; in assay [5], 1.4e+06 M⁻¹ s⁻¹; in assay [6], 810000 M⁻¹ s⁻¹; in assay [7], 770000 M⁻¹ s⁻¹.

For orientation: koff means the rate constant with which the complex falls apart. One may read the Kd as a measure of binding affinity in units of concentration. The kon is a measure of how fast the partners come together.
